Laboratory results published in publication PMC3936483 (The Biochemical journal, 2008).
“And” between values parts separate entries of the source, which are not always exact repeats. Equal values may be shown once.

B1: CTRP10 (C1q/TNF-related protein 10), C-terminal FLAG- or HA-tagged, full length (natural protein, mouse, UniProt Q8CFR0 22-287, looked up)
chain: HYEMLGTCRMICDPYSVAPAGGPAGAKAPPPGPSTAALEVMQDLSANPPPPFIQGPKGDPGRPGKPGPRGPPGEPGPPGPRGPPGEKGDSGRPGLPGLQLTTSAAGGVGVVSGGTGGGGDTEGEVTSALSAAFSGPKIAFYVGLKSPHEGYEVLKFDDVVTNLGNHYDPTTGKFSCQVRGIYFFTYHILMRGGDGTSMWADLCKNGQVRASAIAQDADQNYDYASNSVVLHLDSGDEVYVKLDGGKAHGGNNNKYSTFSGFLLYPD
modifications: carbohydrate moieties (type and sites not determined; none N-linked)
B2: CTRP10ΔCys (C29A/C33A), C-terminal FLAG-tagged (natural protein, mouse, UniProt Q8CFR0 22-287, looked up)
chain: HYEMLGTARMIADPYSVAPAGGPAGAKAPPPGPSTAALEVMQDLSANPPPPFIQGPKGDPGRPGKPGPRGPPGEPGPPGPRGPPGEKGDSGRPGLPGLQLTTSAAGGVGVVSGGTGGGGDTEGEVTSALSAAFSGPKIAFYVGLKSPHEGYEVLKFDDVVTNLGNHYDPTTGKFSCQVRGIYFFTYHILMRGGDGTSMWADLCKNGQVRASAIAQDADQNYDYASNSVVLHLDSGDEVYVKLDGGKAHGGNNNKYSTFSGFLLYPD
B3: CTRP3ΔCys (C39A/C42A/C43A), C-terminal FLAG-tagged (natural protein, UniProt Q9ES30 23-246, looked up)
chain: QDEYMESPQAGGLPPDASKAAHGDYGFRGYQGPPGPPGPPGIPGNHGNNGNNGATGHEGAKGEKGDKGDLGPRGERGQHGPKGEKGYPGVPPELQIAFMASLATHFSNQNSGIIFSSVETNIGNFFDVMTGRFGAPVSGVYFFTFSMMKHEDVEEVYVYLMHNGNTVFSMYSYETKGKSDTSSNHAVLKLAKGDEVWLRMGNGALHGDHQRFSTFAGFLLFETK
B4: CTRP3 (C1q/TNF-related protein 3), C-terminal FLAG- or HA-tagged, full length (natural protein, UniProt Q9ES30 23-246, looked up)
chain: QDEYMESPQAGGLPPDCSKCCHGDYGFRGYQGPPGPPGPPGIPGNHGNNGNNGATGHEGAKGEKGDKGDLGPRGERGQHGPKGEKGYPGVPPELQIAFMASLATHFSNQNSGIIFSSVETNIGNFFDVMTGRFGAPVSGVYFFTFSMMKHEDVEEVYVYLMHNGNTVFSMYSYETKGKSDTSSNHAVLKLAKGDEVWLRMGNGALHGDHQRFSTFAGFLLFETK
modifications: carbohydrate moieties (type and sites not determined; none N-linked)
B5: adiponectin, C-terminal FLAG- or HA-tagged, full length (natural protein, UniProt Q60994 18-247, looked up)
chain: EDDVTTTEELAPALVPPPKGTCAGWMAGIPGHPGHNGTPGRDGRDGTPGEKGEKGDAGLLGPKGETGDVGMTGAEGPRGFPGTPGRKGEPGEAAYVYRSAFSVGLETRVTVPNVPIRFTKIFYNQQNHYDGSTGKFYCNIPGLYYFSYHITVYMKDVKVSLFKKDKAVLFTYDQYQEKNVDQASGSVLLHLEVGDQVWLQVYGDGDHNGLYADNVNDSTFTGFLLYHDTN
B6: CTRP6 (C1q/TNF-related protein 6), C-terminal FLAG- or HA-tagged, full length (natural protein, UniProt Q6IR41 25-264, looked up)
chain: VPTEETTFGESVASHLPKGCRRCCDPEDLMSSDDTVQAPVSPYVLPEVRPYINITILKGDKGDRGPTGTPGKPGKNGTRGDRGSQGVKGDKGQAGSPGSSCQTHYSAFSVGRKTGLHSSENFLSLLFDRVFVNTDGHFDMATGSFVAPLRGLYFFSLNVHSWNYKETYVHIVHNEQAVVILYAQPSERSIMQSQSVMLPLVPGDRVWVRLFKRERENGIYSDDVDTYITFSGHLIKAEDN
modifications: N-linked glycans (sites not given)
B7: CTRP6ΔCys (C44A/C47A/C48A/C125A), C-terminal FLAG- or HA-tagged (natural protein, UniProt Q6IR41 25-264, looked up)
chain: VPTEETTFGESVASHLPKGARRAADPEDLMSSDDTVQAPVSPYVLPEVRPYINITILKGDKGDRGPTGTPGKPGKNGTRGDRGSQGVKGDKGQAGSPGSSAQTHYSAFSVGRKTGLHSSENFLSLLFDRVFVNTDGHFDMATGSFVAPLRGLYFFSLNVHSWNYKETYVHIVHNEQAVVILYAQPSERSIMQSQSVMLPLVPGDRVWVRLFKRERENGIYSDDVDTYITFSGHLIKAEDN
B8: CTRP5ΔCys (C28A/C98A), C-terminal FLAG-tagged (natural protein, UniProt Q8K479 16-243, looked up)
chain: SPPLDDNKIPSLAPGQPGLPGTPGHHGSQGLPGRDGRDGRDGAPGAPGEKGEGGRPGLPGPRGEPGPRGEAGPMGAIGPAGEASVPPRSAFSAKRSESRVPPPADTPLPFDRVLLNEQGHYDPTTGKFTCQVPGVYYFAVHATVYRASLQFDLVKNGQSIASFFQYFGGWPKPASLSGGAMVRLEPEDQVWVQVGVGDYIGIYASIKTDSTFSGFLVYSDWHSSPVFA
B9: CTRP5 (C1q/TNF-related protein 5), C-terminal FLAG- or HA-tagged, full length (natural protein, UniProt Q8K479 16-243, looked up)
chain: SPPLDDNKIPSLCPGQPGLPGTPGHHGSQGLPGRDGRDGRDGAPGAPGEKGEGGRPGLPGPRGEPGPRGEAGPMGAIGPAGECSVPPRSAFSAKRSESRVPPPADTPLPFDRVLLNEQGHYDPTTGKFTCQVPGVYYFAVHATVYRASLQFDLVKNGQSIASFFQYFGGWPKPASLSGGAMVRLEPEDQVWVQVGVGDYIGIYASIKTDSTFSGFLVYSDWHSSPVFA
modifications: carbohydrate moieties (type and sites not determined; none N-linked)
B10: CTRP1ΔCys (C73A/C76A/C77A/C141A), C-terminal FLAG-tagged (natural protein, mouse, UniProt Q9QXP7 26-281, looked up)
chain: LVPRVQEEQQEWEETEELPSPLDPVTRPEETREKYSPRQGEDLPTSRAYRAADPSTPVYQTIPPPQINITILKGEKGDRGDRGLQGKYGKIGSTGPRGHVGPKGQKGSIGAPGNHAKSQYAAFSVGRKKALHSNDYFQPVVFDTEFVNLYKHFNMFTGKFYCYVPGIYFFSLNVHTWNQKETYLHIMKNEEEVVILYAQVSDRSIMQSQSLMMELREEDEVWVRLFKGERENAIFSDEFDTYITFSGYLVKPASEP
B11: CTRP1 (C1q/TNF-related protein 1), C-terminal FLAG- or HA-tagged, full length (natural protein, mouse, UniProt Q9QXP7 26-281, looked up)
chain: LVPRVQEEQQEWEETEELPSPLDPVTRPEETREKYSPRQGEDLPTSRCYRCCDPSTPVYQTIPPPQINITILKGEKGDRGDRGLQGKYGKIGSTGPRGHVGPKGQKGSIGAPGNHCKSQYAAFSVGRKKALHSNDYFQPVVFDTEFVNLYKHFNMFTGKFYCYVPGIYFFSLNVHTWNQKETYLHIMKNEEEVVILYAQVSDRSIMQSQSLMMELREEDEVWVRLFKGERENAIFSDEFDTYITFSGYLVKPASEP
modifications: N-linked glycans (site not given)
B12: serum CTRP5 (natural protein, mouse (endogenous in C57BL/6 serum), UniProt Q8K479 16-243, looked up)
chain: SPPLDDNKIPSLCPGQPGLPGTPGHHGSQGLPGRDGRDGRDGAPGAPGEKGEGGRPGLPGPRGEPGPRGEAGPMGAIGPAGECSVPPRSAFSAKRSESRVPPPADTPLPFDRVLLNEQGHYDPTTGKFTCQVPGVYYFAVHATVYRASLQFDLVKNGQSIASFFQYFGGWPKPASLSGGAMVRLEPEDQVWVQVGVGDYIGIYASIKTDSTFSGFLVYSDWHSSPVFA

Target: the molecule itself
Assay: SEC

Protein	stoichiometry N
B1	3 and ~6
B2	3
B3	3
B4	3 and ~6
B5	3 and 6
B6	~6 and 3
B7	3
B8	3
B9	3 and ~6
B10	3
B11	3

Target: the molecule itself
Assay: SEC
Remark: another data set of the same source

Protein	stoichiometry N
B12	3
